Reference: patent publication US20100203031

Legend:
Assay in all cases: cell_activity
[1] = system: HBB5 H3 V105A I132V/H4a heterodimer H3: 30S,33H,38R,44K,68Y,70S,77T,V105A,I132V; H4a: 19S,32T,44A,70S,75E,77R,80K,96R; details: [none]; yeast beta-galactosidase value
[2] = system: HBB5 H3 I132V/H4a heterodimer H3: 30S,33H,38R,44K,68Y,70S,77T,I132V; H4a: 19S,32T,44A,70S,75E,77R,80K,96R; details: [none]; yeast beta-galactosidase value
[3] = system: HBB5 H3/H4a heterodimer H3: 30S,33H,38R,44K,68Y,70S,77T; H4a: 19S,32T,44A,70S,75E,77R,80K,96R; details: [none]; yeast beta-galactosidase value
[4] = system: HBB5 H3 V105A/H4b heterodimer H3: 30S,33H,38R,44K,68Y,70S,77T,V105A; H4b: 24V,43L,44A,70S,75E,77R,80K,87L,96R; details: [none]; yeast beta-galactosidase value
[5] = system: HBB5 H3 I132V/H4b heterodimer H3: 30S,33H,38R,44K,68Y,70S,77T,I132V; H4b: 24V,43L,44A,70S,75E,77R,80K,87L,96R; details: [none]; yeast beta-galactosidase value
[6] = system: HBB5 H3 V105A/H4a heterodimer H3: 30S,33H,38R,44K,68Y,70S,77T,V105A; H4a: 19S,32T,44A,70S,75E,77R,80K,96R; details: [none]; yeast beta-galactosidase value
[7] = system: HBB5 H3 V105A I132V/H4b heterodimer H3: 30S,33H,38R,44K,68Y,70S,77T,V105A,I132V; H4b: 24V,43L,44A,70S,75E,77R,80K,87L,96R; details: [none]; yeast beta-galactosidase value
[8] = system: HBB5 H3/H4b heterodimer H3: 30S,33H,38R,44K,68Y,70S,77T; H4b: 24V,43L,44A,70S,75E,77R,80K,87L,96R; details: [none]; yeast beta-galactosidase value
[9] = system: HprCH3.3 G19S/HprCH3.4 G19S heterodimer chain1: G19S,Y33H,42A,43L; chain2: G19S,S32T,Y33H,Q44R,R68Y,R70S,72T,D75N,I77N; details: [none]; no LacZ+ foci
[10] = system: HprCH3.3/HprCH3.4 G19S heterodimer chain1: Y33H,42A,43L; chain2: G19S,S32T,Y33H,Q44R,R68Y,R70S,72T,D75N,I77N; details: [none]; CHO chromosomal assay, maximum
[11] = system: HprCH3.3 G19S/HprCH3.4 heterodimer chain1: G19S,Y33H,42A,43L; chain2: S32T,Y33H,Q44R,R68Y,R70S,72T,D75N,I77N; details: [none]; CHO chromosomal assay, maximum
[12] = system: HprCH3.3/HprCH3.4 heterodimer chain1: KNSHQS/QRRDI/42A43L (Y33H,42A,43L); chain2: KNTHQS/RYSNN/72T (S32T,Y33H,Q44R,R68Y,R70S,72T,D75N,I77N); details: [none]; CHO chromosomal assay, maximum

Row | Sequence | activity [1] | activity [2] | activity [3] | activity [4] | activity [5] | activity [6] | activity [7] | activity [8] | activity (LacZ repair frequency) [9] | activity (LacZ repair frequency) [10] | activity (LacZ repair frequency) [11] | activity (LacZ repair frequency) [12]
1 | TTGGTCTCCTTAAACCTGTCTTGA (double strand) [HBB5] | 0.77 | 0.49 | 0.34 | 0.37 | 0.37 | 0.47 | 0.56 | 0.29 |  |  |  | 
2 | TCGAGATGTCATGAAAGAGATGGA (double strand) [HprCH3] |  |  |  |  |  |  |  |  | < 6e-06 | 0.012 | 0.0115 | 0.002
